Assay [1] concerns the target T1, Peptide fragment of nAchR (Nicotinic acetylcholine receptor), 32 mer, biotinylated (N-terminal biotin).
T1 construct: Synthesised by Anigen; Immobilised on a streptavidin chip for SPR; also called biotinylated nAchR; biotinylated-nAchR peptide
T1 peptide: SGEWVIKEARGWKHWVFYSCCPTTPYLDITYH
The assay is described as follows: phage ELISA: clones with higher absorbance than on BSA, sequenced. On the procedure:
(§1) The transformed cells were infected with Ex helper phages (5×10⁹ pfu/ml; OD=0.8-1.0) and cultured at 37° C. for 1 hr with shaking at 200 rpm. After removing the supernatant by centrifuging at 1,000×g for 10 min, the precipitated cells were resuspended in 1 ml LB liquid media supplemented with 50 μg/ml ampicillin and 25 μg/ml kanamycin, and cultured at 30° C. overnight with shaking at 200 rpm. The supernatant was collected by centrifuging at 10,000×g for 20 min at 4° C. and mixed with 2% skim milk, which is used in detection of phage peptides.
(§2) Fibronectin ED-B, VEGF, VCAM1, Nicotinic acetylcholine receptor (nAchR), Human serum albumin and MyD88 (each 5 μg/ml) and BSA (10 μg/ml) were added to 30 wells (50 μl per well) in a 96-well ELISA plate and then kept to stand at 4° C. overnight. Next day, all wells were washed with 0.1% PBST three times, and blocked at room temperature for 2 hrs using 2% skim milk diluted with PBS. Then, the solution was removed and the plate was washed with 0.1% PBST three times. Phage peptide solution (100 μl) amplified from each clone was divided into all wells and kept to stand at 27° C. for 1.5 hrs. After washing with 0.1% PBST 5 times, HRP-conjugated anti-M13 antibodies (1:1,000 dilution; GE Healthcare) were added to each well and incubated at 27° C. for 1 hr. After washing with 0.1% PBST 5 times, 100 μl TMB was divided into each well to induce colorimetric reaction, followed by stopping the reaction adding 100 μl of 1 M HCl. The absorbance was measured at 450 nm to select phages which had the absorbance higher than BSA. XL1 cells were infected with these phages and spread in plate to produce 100-200 of plaques. Using a sterile tip, plaques were inoculated in 4 ml LB-ampicillin (50 μg/ml) media and cultured at 37° C. overnight with vigorous shaking. Plasmids were purified by plasmid preparation kit (GeneAll, Seoul, Korea), and then sequenced. The following phagemid sequence was used for sequencing: 5′-[…]-3′.
(§3) The phages recovered from biopanning step having the highest ratio of output phage to input phage were isolated as plaques. Sixty plaques were amplified from each plaque, and then ELISA for BSA was carried out (FIG. 4). After selecting clones with higher absorbance compared to BSA, they were sequenced. We isolated peptides specific to each protein which were repetitively found in DNA sequencing (Table 3).
(In general: In an ELISA, binding on a coated surface is turned into a signal by an enzyme label.)

For assay [2], the target named is T2, VEGF121 (human vascular endothelial growth factor) (human, UniProt P15692-9 27-147).
T2 construct: Immobilised on a CM5 chip by EDC/NHS for SPR and coated on plates for phage ELISA; also called VEGF-Trx cut with thrombin
T2 sequence (looked up): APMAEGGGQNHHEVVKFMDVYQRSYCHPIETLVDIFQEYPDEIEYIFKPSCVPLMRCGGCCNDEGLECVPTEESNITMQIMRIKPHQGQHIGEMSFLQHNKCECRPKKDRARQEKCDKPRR
The description is as above. As for the experimental part: as §1, §2, §3

The target in assay [3] is T3, Human serum albumin (human, UniProt P02768 25-609).
T3 construct: Bought protein; also called HSA; HAS
T3 sequence (P02768 25-609 limits assumed): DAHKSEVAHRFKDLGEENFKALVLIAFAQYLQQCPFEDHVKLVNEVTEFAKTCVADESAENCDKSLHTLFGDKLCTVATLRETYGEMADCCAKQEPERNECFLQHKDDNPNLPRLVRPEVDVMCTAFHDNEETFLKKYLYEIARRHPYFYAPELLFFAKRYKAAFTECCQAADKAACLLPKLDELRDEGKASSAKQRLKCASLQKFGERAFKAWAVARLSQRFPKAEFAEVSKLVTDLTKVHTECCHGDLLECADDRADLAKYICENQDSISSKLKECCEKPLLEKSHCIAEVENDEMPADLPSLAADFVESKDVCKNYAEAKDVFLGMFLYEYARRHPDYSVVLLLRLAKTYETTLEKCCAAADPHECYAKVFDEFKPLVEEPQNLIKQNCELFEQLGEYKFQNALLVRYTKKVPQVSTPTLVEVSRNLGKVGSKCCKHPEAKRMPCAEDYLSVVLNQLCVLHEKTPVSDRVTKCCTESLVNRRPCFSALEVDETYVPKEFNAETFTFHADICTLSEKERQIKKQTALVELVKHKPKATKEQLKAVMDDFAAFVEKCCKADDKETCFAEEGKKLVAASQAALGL
The assay is described as above. As for the experimental part:
as §1, §2, §3

For assay [4], the target named is T4, Fibronectin ED-B protein (human fibronectin extra domain B, N-terminal His-tag) (human, UniProt P02751 1266-1356, biotinylated with sulfo-NHS-SS-biotin for biopanning, input-phage ELISA and SPR on the streptavidin chip).
T4 construct: domain: ED-B; Expressed in E. coli BL21 from pET28b; also called biotinylated-EDB; not shown: N-terminal His-tag from the pET28b vector
T4 sequence (P02751 1266-1356): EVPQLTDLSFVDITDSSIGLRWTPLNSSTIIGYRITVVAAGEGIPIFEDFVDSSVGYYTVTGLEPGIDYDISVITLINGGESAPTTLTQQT
In words: SPR (BIAcore X), biotinylated ED-B on SA chip. As for the experimental part:
(§4) In addition to tryptophan zipper, GB1 m3 and HP7 peptide as a type of other (3-hairpin backbones were synthesized to contain N-terminal sequence (HCSSAV) and C-terminal sequence (IIRLEQ) of peptide 2 which is specifically bound to ED-B (Anigen, Korea). In other words, the sequence of bipodal-peptide binder in tryptophan zipper is […], and in GB1 m3 and HP7 are […] and […], respectively. Affinity of each peptide was measured using BIAcore X (Biacore AB, Uppsala, Sweden). ED-B was immobilized on streptavidin (SA) chip (Biacore) by injecting 2,000 RU biotinylated-EDB. PBS (pH 7.4) was used as a running buffer. […] It could be appreciated that all stable β-hairpin motifs may function as a structure stabilizing region.

The target in assay [5] is T4, Fibronectin ED-B protein (human …). In words: SPR (BIAcore X), 2,000 RU biotinylated ED-B on streptavidin chip, PBS pH 7.4, 30 µl/min. As for the experimental part: as §4
In general terms: Surface plasmon resonance follows binding to a sensor surface in real time, without labels.

Assay [6] addresses T5, GST-AR DBD protein (androgen receptor DNA binding domain with N-terminal GST) (UniProt P10275 556-636).
T5 construct: In ELISA and EMSA the text calls the protein AR-DBD or AR DBD protein; also called androgen receptor DBD; not shown: GST encoded by the pGEX-4T-1 vector, N-terminal
T5 sequence (looked up): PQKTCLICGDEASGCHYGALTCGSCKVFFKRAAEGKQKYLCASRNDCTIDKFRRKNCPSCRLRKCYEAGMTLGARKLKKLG
The assay is described as follows: phage ELISA of single clones on AR-DBD against BSA. As for the experimental part: AR-DBD (10 μg/ml) and BSA (10 μg/ml) each was added to 30 wells (50 μl per well) in a 96-well ELISA plate and then kept to stand at 4° C. overnight. Next day, all wells were washed with 0.1% PBST three times, and blocked at room temperature for 2 hrs using 2% skim milk diluted with PBS. Then, the solution was removed and the plate was washed with 0.1% PBST three times. Phage peptide solution (100 μl) amplified from each clone was aliquoted to […] protein-bound wells and BSA protein-bound wells and kept to stand at 27° C. for 1.5 hrs. After washing with 0.1% PBST 10 times, HRP-conjugated anti-M13 antibodies (1:1,000 dilution; GE Healthcare) were added to each well and incubated at 27° C. for 1 hr. After washing with 0.1% PBST 5 times, 100 μl TMB was divided into each well to induce colorimetric reaction, followed by stopping the reaction adding 100 μl of 1 M HCl. The absorbance was measured at 450 nm to select phages which had the absorbance above 20-fold higher than BSA. XL1 cells were infected with these phages and spread in plate to produce 100-200 of plaques. […]
The phages recovered from the 5th biopanning step having the highest O/I ratio in each library were isolated as plaques. […] Most plaques were analyzed to show the absorbance value of AR-DBD higher than that of BSA. The DNA sequencing was performed for 20 clones showing the absorbance value above 5-fold higher than BSA. […]

In assay [7] the target is T4, Fibronectin ED-B protein (human …). In words: SPR (Biacore), ED-B. As for the experimental part: (§5) Bipodal-peptide binder peptides specific to ED-B, VEGF or nAchR which were repetitively found in DNA sequencing were synthesized from Anigen Inc. (Korea). Affinity was measured using BIAcore X instrument (Biacore AB, Uppsala, Sweden). ED-B and nAchR were immobilized on streptavidin (SA) chip (Biacore) by injecting 2,000 RU biotinylated-EDB. VEGF was immobilized on CM5 chip (Biacore) using EDC/NHS. PBS (pH 7.4) was used as a running buffer.
(§6) To verify cooperative effect of bipodal-peptide binder to antigen, we synthesized two peptides removing either N- or C-terminal region of peptide 2 to ED-B having excellent specificity in Table 3a for affinity measurement.

For assay [8] the target is unchanged. In words: SPR, synthetic truncated peptide on ED-B. As for the experimental part: as §5, §6
The target is the same in assay [9]. In words: SPR (BIAcore X), biotinylated ED-B on SA chip. As for the experimental part: as §5
(§7) The above-mentioned peptides were synthesized and their affinities to fibronectin ED-B, VEGF, VCAM1, nAchR and HAS were measured using SPR Biacore system (Biacore AB, Uppsala, Sweden).
This is another data set of the same source.

The target is the same in assay [10]. In words: SPR (BIAcore X), biotinylated ED-B on streptavidin chip, synthetic peptide as analyte. As for the experimental part: as §5, §7
Assay [11] has as its target T2, VEGF121 (human vascular endothelial …). In words: SPR (BIAcore X), VEGF on CM5 chip. On the procedure:
as §5, §7

The target is the same in assay [12]. The assay is described as follows: SPR (BIAcore X), VEGF on CM5 chip, synthetic peptide as analyte. On the procedure: as §5, §7

Broadly, the koff is a measure of how fast the partners let go of each other. Low readings indicate slow dissociation, high ones fast dissociation. What is called kon is the second-order rate constant of association. In general, Kd refers to the constant that tells how readily two partners part at equilibrium. A higher Kd goes with a looser complex.

Turning to YAYPLLGSWTWENGKWTWKGWYQKWI [Peptide 2 specific to nAchR (Table 3d), bipodal-peptide binder], in [1], the binding result is “binds”.

On to HAFYYTGSWTWENGKWTWKGWPVTTS [Peptide 3 specific to VEGF (Table 3b), bipodal-peptide binder], for which, in [2], the binding result was “binds”.

Take YGAYPWGSWTWENGKWTWKGWRVSRD: the binding result in assay [2] and in assay [3] was “binds” each time.

Take SANSLYGSWTWENGKWTWKGTSRQRW [Peptide 2 specific to HSA (Table 3e), bipodal-peptide binder]: the binding result in assay [3] is on record as “binds”.

As to AAPTSFGSWTWENGKWTWKGWQMWHR [Peptide 5 specific to VEGF (Table 3b), bipodal-peptide binder], the binding result in assay [2] is listed as “binds”.

In assay [4], HCSSAVGKKWTYNPATGKFTVQEGIIRLEQ (Synthetic peptide (Anigen)) [Bipodal-peptide binder with GB1 m3 β-hairpin backbone carrying the ED-B peptide 2 binding regions] returned a koff of 0.0119 s⁻¹ and an on-rate (kon) of 169000 M⁻¹ s⁻¹. Also, binding in [5] was characterised by a dissociation constant (Kd) of 70 nM.

On to YGFAPFGSWTWENGKWTWKGYSTQKP [Peptide 1 from the AR-DBD biopanning (14/20 clones), bipodal-peptide binder], for which the “fold absorbance over BSA” value in [6] was over 5 fold.

As to YAHFGWGSWTWENGKWTWKGTTDSQS [Peptide 5 specific to HSA (Table 3e), bipodal-peptide binder], the binding result in assay [3] was “binds”.

For the molecule HCSSAVGKTWNPATGKWTEGIIRLEQ (Synthetic peptide (Anigen)) [Bipodal-peptide binder with HP7 β-hairpin backbone carrying the ED-B peptide 2 binding regions], in [4], the koff was determined as 0.0197 s⁻¹ and the kon came out at 236000 M⁻¹ s⁻¹. In [5], the dissociation constant (Kd) was determined as 84 nM.

Consider HCSSAVGSWTWENGKWTWKG [N-terminal region peptide derived from ED-B peptide 2 (monopodal, one target binding region removed)], for which, in [7], the koff turned out to be 2.54 s⁻¹ and the kon was found to be 4290 M⁻¹ s⁻¹. In assay [8], this molecule showed a dissociation constant Kd of 592 µM.

In assay [7], GSWTWENGKWTWKGIIRLEQ [C-terminal region peptide derived from ED-B peptide 2 (monopodal, one target binding region removed)] yielded an off-rate (koff) of 0.022 s⁻¹ and a kon of 1770 M⁻¹ s⁻¹. For the same molecule, binding in [8] was characterised by a dissociation constant (Kd) of 12.8 µM.

In [9], HSQGSPGSWTWENGKWTWKGRYSHRA [Peptide 3 specific to fibronectin ED-B (Table 3a), bipodal-peptide binder] showed an off-rate (koff) of 0.099 s⁻¹ and a kon of 390000 M⁻¹ s⁻¹. In assay [10], the Kd was determined as 2500 nM.

Take ASLPAWGSWTWENGKWTWKGWSTRTA [Peptide 3 specific to nAchR (Table 3d), bipodal-peptide binder]: the binding result in [1] is on record as “binds”.

As for MSADKSGSWTWENGKWTWKGQVRTRD [Peptide 1 specific to fibronectin ED-B (Table 3a), bipodal-peptide binder], in [9], the off-rate constant (koff) stood at 0.024 s⁻¹ and the kon turned out to be 38000 M⁻¹ s⁻¹. The dissociation constant Kd in assay [10] was 620 nM.

In assay [11], ASPFWAGSWTWENGKWTWKGWVPSNA [Peptide 2 specific to VEGF (Table 3b), bipodal-peptide binder] returned a koff of 0.011 s⁻¹ and a kon of 35000 M⁻¹ s⁻¹. In [12], this molecule came in with a Kd of 326 nM.

Turning to YAHVYYGSWTWENGKWTWKGHRVTQT [Peptide 3 specific to HSA (Table 3e), bipodal-peptide binder], the binding result in assay [3] is recorded as “binds”.

The values are drawn from patent US20120309934A1 (GWANGJU INSTITUTE OF SCIENCE AND TECHNOLOGY, published 2012).
